Assay results: publication PMC12102759 (2025)

B1: AXIN1 peptide 237-252 (Axin-1), 16-mer library wild type / PP2A B56 (PPP2R5A B56 domain, residues 1-486) (parent complex)
chain 1: YLPTLNEDEEWKADQD
chain 2: not shown
B2: SH3BP2 peptide 408-423 (SH3 domain-binding protein 2), 16-mer library wild type / TNKS ANK (TNKS 12 ANK repeats, residues 174-649) (parent complex)
chain 1: PQLPHLQRSPPDGQSF
chain 2: TGVPAVSGALRELLEACRNGDVSRVKRLVDAANVNAKDMAGRKSSPLHFAAGFGRKDVVEHLLQMGANVHARDDGGLIPLHNACSFGHAEVVSLLLCQGADPNARDNWNYTPLHEAAIKGKIDVCIVLLQHGADPNIRNTDGKSALDLADPSAKAVLTGEYKKDELLEAARSGNEEKLMALLTPLNVNCHASDGRKSTPLHLAAGYNRVRIVQLLLQHGADVHAKDKGGLVPLHNACSYGHYEVTELLLKHGACVNAMDLWQFTPLHEAASKNRVEVCSLLLSHGADPTLVNCHGKSAVDMAPTPELRERLTYEFKGHSLLQAAREADLAKVKKTLALEIINFKQPQSHETALHCAVASLHPKRKQVTELLLRKGANVNEKNKDFMTPLHVAAERAHNDVMEVLHKHGAKMNALDTLGQTALHRAALAGHLQTCRLLLSYGSDPSIISLQGFTAAQMGNEAVQQILSESTPIRTSD

Variants of: B1
Assay: proteomic peptide phage display deep mutational scan (ProP-PD DMS): M13 P8 16-mer library selected against immobilised GST-tagged bait for four days (rounds), NGS of the eluted pools per day and pseudo-replica; bait immobilised on MaxiSorp plates (10 µg), library pre-cleared on GST, 2 h binding at 4 °C, five washes; one round per day, days 1-4; value from days 2 and 3

Variant | screen value
chain 1 E10L | 0.00181 average fractional NGS count over selection days 2 and 3 (reads of this peptide / all reads for the bait, averaged over …
chain 1 E10Q | 0.000224 average fractional NGS count over selection days 2 and 3 (reads of this peptide / all reads for the bait, averaged over …
chain 1 E10F | 0.000572 average fractional NGS count over selection days 2 and 3 (reads of this peptide / all reads for the bait, averaged over …
chain 1 E10G | 0.00014 average fractional NGS count over selection days 2 and 3 (reads of this peptide / all reads for the bait, averaged over …
chain 1 E10S | 0.000255 average fractional NGS count over selection days 2 and 3 (reads of this peptide / all reads for the bait, averaged over …
chain 1 E10H | 0.000923 average fractional NGS count over selection days 2 and 3 (reads of this peptide / all reads for the bait, averaged over …
chain 1 W11I | 0.000232 average fractional NGS count over selection days 2 and 3 (reads of this peptide / all reads for the bait, averaged over …
chain 1 W11V | 0.000957 average fractional NGS count over selection days 2 and 3 (reads of this peptide / all reads for the bait, averaged over …
chain 1 W11Q | 0.000237 average fractional NGS count over selection days 2 and 3 (reads of this peptide / all reads for the bait, averaged over …
chain 1 D14M | 0.0116 average fractional NGS count over selection days 2 and 3 (reads of this peptide / all reads for the bait, averaged over …
chain 1 D14W | 0.0112 average fractional NGS count over selection days 2 and 3 (reads of this peptide / all reads for the bait, averaged over …
chain 1 D14H | 0.038 average fractional NGS count over selection days 2 and 3 (reads of this peptide / all reads for the bait, averaged over …
chain 1 D14K | 0.000793 average fractional NGS count over selection days 2 and 3 (reads of this peptide / all reads for the bait, averaged over …
chain 1 D14L | 0.00106 average fractional NGS count over selection days 2 and 3 (reads of this peptide / all reads for the bait, averaged over …
chain 1 D14R | 0.0071 average fractional NGS count over selection days 2 and 3 (reads of this peptide / all reads for the bait, averaged over …
chain 1 Q15I | 0.00307 average fractional NGS count over selection days 2 and 3 (reads of this peptide / all reads for the bait, averaged over …
chain 1 Q15K | 0.000314 average fractional NGS count over selection days 2 and 3 (reads of this peptide / all reads for the bait, averaged over …
chain 1 Q15Y | 0.00911 average fractional NGS count over selection days 2 and 3 (reads of this peptide / all reads for the bait, averaged over …
chain 1 Q15W | 0.00273 average fractional NGS count over selection days 2 and 3 (reads of this peptide / all reads for the bait, averaged over …
chain 1 Q15M | 0.00211 average fractional NGS count over selection days 2 and 3 (reads of this peptide / all reads for the bait, averaged over …

Variant | screen value
chain 1 Q15E | 0.00341 average fractional NGS count over selection days 2 and 3 (reads of this peptide / all reads for the bait, averaged over …
chain 1 Q15H | 0.0369 average fractional NGS count over selection days 2 and 3 (reads of this peptide / all reads for the bait, averaged over …
chain 1 Q15D | 0.000993 average fractional NGS count over selection days 2 and 3 (reads of this peptide / all reads for the bait, averaged over …
chain 1 T4V | 0.000271 average fractional NGS count over selection days 2 and 3 (reads of this peptide / all reads for the bait, averaged over …
chain 1 T4M | 0.000565 average fractional NGS count over selection days 2 and 3 (reads of this peptide / all reads for the bait, averaged over …
chain 1 T4Y | 0.00014 average fractional NGS count over selection days 2 and 3 (reads of this peptide / all reads for the bait, averaged over …
chain 1 N6D | 0.00102 average fractional NGS count over selection days 2 and 3 (reads of this peptide / all reads for the bait, averaged over …
chain 1 N6R | 0.000965 average fractional NGS count over selection days 2 and 3 (reads of this peptide / all reads for the bait, averaged over …
chain 1 N6V | 0.00339 average fractional NGS count over selection days 2 and 3 (reads of this peptide / all reads for the bait, averaged over …
chain 1 N6K | 0.0012 average fractional NGS count over selection days 2 and 3 (reads of this peptide / all reads for the bait, averaged over …
chain 1 E9K | 0.00203 average fractional NGS count over selection days 2 and 3 (reads of this peptide / all reads for the bait, averaged over …
chain 1 E9H | 0.000956 average fractional NGS count over selection days 2 and 3 (reads of this peptide / all reads for the bait, averaged over …
chain 1 E9M | 0.00292 average fractional NGS count over selection days 2 and 3 (reads of this peptide / all reads for the bait, averaged over …
chain 1 E9F | 0.00128 average fractional NGS count over selection days 2 and 3 (reads of this peptide / all reads for the bait, averaged over …
chain 1 E9L | 0.000568 average fractional NGS count over selection days 2 and 3 (reads of this peptide / all reads for the bait, averaged over …
chain 1 E9Y | 0.0102 average fractional NGS count over selection days 2 and 3 (reads of this peptide / all reads for the bait, averaged over …
chain 1 E9D | 0.000572 average fractional NGS count over selection days 2 and 3 (reads of this peptide / all reads for the bait, averaged over …
chain 1 P3E | 0.000951 average fractional NGS count over selection days 2 and 3 (reads of this peptide / all reads for the bait, averaged over …
chain 1 P3H | 0.00026 average fractional NGS count over selection days 2 and 3 (reads of this peptide / all reads for the bait, averaged over …
chain 1 P3Y | 0.000178 average fractional NGS count over selection days 2 and 3 (reads of this peptide / all reads for the bait, averaged over …

Variant | screen value
chain 1 A13Y | 0.00559 average fractional NGS count over selection days 2 and 3 (reads of this peptide / all reads for the bait, averaged over …
chain 1 A13M | 0.000333 average fractional NGS count over selection days 2 and 3 (reads of this peptide / all reads for the bait, averaged over …
chain 1 A13W | 0.00128 average fractional NGS count over selection days 2 and 3 (reads of this peptide / all reads for the bait, averaged over …
chain 1 A13F | 0.000843 average fractional NGS count over selection days 2 and 3 (reads of this peptide / all reads for the bait, averaged over …
chain 1 Y1N | 0.000299 average fractional NGS count over selection days 2 and 3 (reads of this peptide / all reads for the bait, averaged over …
chain 1 Y1T | 0.00199 average fractional NGS count over selection days 2 and 3 (reads of this peptide / all reads for the bait, averaged over …
chain 1 Y1P | 0.000164 average fractional NGS count over selection days 2 and 3 (reads of this peptide / all reads for the bait, averaged over …
chain 1 Y1M | 0.000646 average fractional NGS count over selection days 2 and 3 (reads of this peptide / all reads for the bait, averaged over …
chain 1 Y1I | 0.00029 average fractional NGS count over selection days 2 and 3 (reads of this peptide / all reads for the bait, averaged over …
chain 1 D8M | 0.000462 average fractional NGS count over selection days 2 and 3 (reads of this peptide / all reads for the bait, averaged over …
chain 1 D8W | 0.000322 average fractional NGS count over selection days 2 and 3 (reads of this peptide / all reads for the bait, averaged over …
chain 1 D8I | 0.000369 average fractional NGS count over selection days 2 and 3 (reads of this peptide / all reads for the bait, averaged over …
chain 1 D8N | 0.000367 average fractional NGS count over selection days 2 and 3 (reads of this peptide / all reads for the bait, averaged over …
chain 1 D8V | 0.000175 average fractional NGS count over selection days 2 and 3 (reads of this peptide / all reads for the bait, averaged over …
chain 1 K12T | 0.00858 average fractional NGS count over selection days 2 and 3 (reads of this peptide / all reads for the bait, averaged over …
chain 1 K12W | 0.0129 average fractional NGS count over selection days 2 and 3 (reads of this peptide / all reads for the bait, averaged over …
chain 1 K12G | 0.00482 average fractional NGS count over selection days 2 and 3 (reads of this peptide / all reads for the bait, averaged over …
chain 1 K12M | 0.000504 average fractional NGS count over selection days 2 and 3 (reads of this peptide / all reads for the bait, averaged over …
chain 1 K12A | 0.00844 average fractional NGS count over selection days 2 and 3 (reads of this peptide / all reads for the bait, averaged over …
chain 1 K12F | 0.00191 average fractional NGS count over selection days 2 and 3 (reads of this peptide / all reads for the bait, averaged over …

Variants of: B2
Assay: as above

Variant | screen value
chain 1 PYLPHLQRSPPDGQSF | 0.000238 average fractional NGS count over selection days 2 and 3 (reads of this peptide / all reads for the bait, averaged over …
chain 1 PHLPHLQRSPPDGQSF | 0.000483 average fractional NGS count over selection days 2 and 3 (reads of this peptide / all reads for the bait, averaged over …
chain 1 PTLPHLQRSPPDGQSF | 0.000819 average fractional NGS count over selection days 2 and 3 (reads of this peptide / all reads for the bait, averaged over …
